For 3 substances, 2-MeS-ADP-induced platelet aggregation in human platelet-rich plasma (plate aggregometry), % aggregation and stoichiometry N results are on record in paper PMC13252954.

The target in experiment [1] is integrin αIIbβ3 (human (endogenous in platelets)) (UniProt P08514).
Experiment [2] deals with PII SVMP zymogen (Venom metalloprotease PII-SVMP EOC00006, Echis ocellatus) (Echis ocellatus). Nature of the experiment: SEC + other: non-reducing SDS-PAGE.
In experiment [3] the target is PIΔC SVMP metalloproteinase (MP) domain (Echis ocellatus). Kind of experiment: SEC. Background: Size exclusion chromatography separates by hydrodynamic size, large species first.

Chain of UniProt P08514 (P08514 32-1039, chain 1 of 2): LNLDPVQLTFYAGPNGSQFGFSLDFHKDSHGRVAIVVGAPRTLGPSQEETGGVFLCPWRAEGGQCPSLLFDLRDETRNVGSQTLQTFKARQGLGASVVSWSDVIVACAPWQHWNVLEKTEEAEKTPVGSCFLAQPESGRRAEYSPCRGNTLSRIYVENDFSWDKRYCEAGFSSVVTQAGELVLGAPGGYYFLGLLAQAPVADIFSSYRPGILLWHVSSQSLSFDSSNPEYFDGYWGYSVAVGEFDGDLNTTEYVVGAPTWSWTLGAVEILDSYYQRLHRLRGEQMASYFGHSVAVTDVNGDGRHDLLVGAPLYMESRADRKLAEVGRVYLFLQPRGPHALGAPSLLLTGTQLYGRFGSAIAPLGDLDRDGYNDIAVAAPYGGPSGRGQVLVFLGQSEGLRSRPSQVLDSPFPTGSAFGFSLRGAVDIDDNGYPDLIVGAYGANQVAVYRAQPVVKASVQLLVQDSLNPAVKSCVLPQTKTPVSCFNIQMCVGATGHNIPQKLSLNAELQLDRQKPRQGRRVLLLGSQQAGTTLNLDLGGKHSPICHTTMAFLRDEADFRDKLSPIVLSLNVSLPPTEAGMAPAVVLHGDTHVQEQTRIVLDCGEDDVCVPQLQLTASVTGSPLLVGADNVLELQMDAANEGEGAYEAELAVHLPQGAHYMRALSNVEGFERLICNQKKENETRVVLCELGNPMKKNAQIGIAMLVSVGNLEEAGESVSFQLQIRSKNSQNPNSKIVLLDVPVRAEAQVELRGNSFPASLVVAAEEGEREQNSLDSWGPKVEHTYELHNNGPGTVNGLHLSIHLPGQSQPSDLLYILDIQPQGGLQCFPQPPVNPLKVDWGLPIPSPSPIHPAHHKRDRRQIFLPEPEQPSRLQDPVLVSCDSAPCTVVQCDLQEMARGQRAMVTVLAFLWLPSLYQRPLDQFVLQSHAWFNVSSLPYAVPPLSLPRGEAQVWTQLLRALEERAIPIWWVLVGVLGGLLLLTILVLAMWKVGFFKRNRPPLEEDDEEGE
Chain of UniProt P08514 (P05106 27-788, chain 2 of 2, further chain): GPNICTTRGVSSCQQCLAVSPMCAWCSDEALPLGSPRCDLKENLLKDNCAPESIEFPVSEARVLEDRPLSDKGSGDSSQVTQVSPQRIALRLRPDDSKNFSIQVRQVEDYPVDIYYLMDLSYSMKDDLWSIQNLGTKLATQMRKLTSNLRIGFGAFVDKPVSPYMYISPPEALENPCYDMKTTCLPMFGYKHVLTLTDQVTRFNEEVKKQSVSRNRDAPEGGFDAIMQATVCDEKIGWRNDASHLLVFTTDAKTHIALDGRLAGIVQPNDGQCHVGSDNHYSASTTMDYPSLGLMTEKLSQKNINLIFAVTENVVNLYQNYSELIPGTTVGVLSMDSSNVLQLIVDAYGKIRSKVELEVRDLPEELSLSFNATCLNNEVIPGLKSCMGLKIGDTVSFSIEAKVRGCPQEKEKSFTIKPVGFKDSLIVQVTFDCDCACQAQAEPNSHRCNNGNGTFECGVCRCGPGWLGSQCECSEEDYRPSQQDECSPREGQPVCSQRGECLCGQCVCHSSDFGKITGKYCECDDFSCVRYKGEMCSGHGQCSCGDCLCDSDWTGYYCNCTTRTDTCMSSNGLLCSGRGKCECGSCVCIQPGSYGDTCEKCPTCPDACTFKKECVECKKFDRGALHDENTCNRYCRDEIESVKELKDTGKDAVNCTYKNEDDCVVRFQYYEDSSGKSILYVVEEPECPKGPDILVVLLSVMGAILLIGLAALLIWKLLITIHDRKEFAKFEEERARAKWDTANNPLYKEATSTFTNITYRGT

For the substance activated PII SVMP (enzyme), in experiment [1], the 2-MeS-ADP-induced platelet aggregation in human platelet-rich plasma (plate aggregometry), % aggregation at 500 nM SVMP (% aggregation) is 12.
“PII SVMP zymogen (Venom metalloprotease PII-SVMP EOC00006, Echis ocellatus) (from UniProt A0A3G1E3U2 1-494) (enzyme)”: the stoichiometry N in experiment [2] turned out to be 2.
PI SVMP prodomain (domain or fragment): in experiment [3], the stoichiometry N is 1.

Usually stoichiometry N stands for the number of molecules, sites or subunits per partner or assembly.
